Patent US20250163127A1
Changes are numbered by the printed parent chain. Names may count otherwise.

B1: CD80 variant Q33L/E35D/M47I/T62N/L85Q IgV-Fc (Fc fusion)
chain: VIHVTKEVKEVATLSCGHNVSVEELAQTRIYWLKDKKMVLTMMSGDINIWPEYKNRTIFDINNNLSIVILALRPSDEGTYECVVQKYEKDAFKREHLAEVT
B2: CD80 variant Y31S/E35D/M47L/T79L/E88G IgV-Fc (Fc fusion)
chain: B1 chain with Y31S, L33Q, I47L, N62T, T79L, Q85L, E88G
B3: CD80 variant E35D/M47I/E77A/L85Q/R94W IgV-Fc (Fc fusion)
chain: B1 chain with L33Q, N62T, E77A, R94W
B4: CD80 variant Q33L/E35D/T41S/M43I IgV-Fc (Fc fusion)
chain: B1 chain with T41S, M43I, I47M, N62T, Q85L
B5: CD80 variant H18Y/V20A/Q33L/E35D/M47V/Y53F IgV-Fc (Fc fusion)
chain: B1 chain with H18Y, V20A, I47V, Y53F, N62T, Q85L
B6: CD80 variant V22A/E23D/Q33L/E35D/M47V IgV-Fc (Fc fusion)
chain: B1 chain with V22A, E23D, I47V, N62T, Q85L
B7: CD80 variant Q33L/E35D/M47V/L85Q IgV-Fc (Fc fusion)
chain: B1 chain with I47V, N62T
B8: CD80 variant A26E/E35D/M43T/M47L/L85Q/R94Q IgV-Fc (Fc fusion)
chain: B1 chain with A26E, L33Q, M43T, I47L, N62T, R94Q
B9: CD80 variant E7D/E35D/M47I/L97Q IgV-Fc (Fc fusion)
chain: B1 chain with E7D, L33Q, N62T, Q85L, L97Q
B10: CD80 variant H18L/V22A/E35D/M47L/N48T/L85Q IgV-Fc (Fc fusion)
chain: B1 chain with H18L, V22A, L33Q, I47L, N48T, N62T
B11: CD80 variant Q27H/Q33L/E35D/M47V/N55D/L85Q/K89N IgV-Fc (Fc fusion)
chain: B1 chain with Q27H, I47V, N55D, N62T, K89N
B12: CD80 variant Q33K/E35D/D46V/L85Q IgV-Fc (Fc fusion)
chain: B1 chain with L33K, D46V, I47M, N62T

Experiments:
CTLA4 (human) = test: flow cytometry, CHO cells stably expressing CTLA4
CD28 (human) = CD28 (human) (UniProt P10747); test: flow cytometry, Jurkat cells (CD28)
PD-L1 (human) = test: flow cytometry, CHO cells stably expressing PD-L1
Sequence of PD-L1 (human) (chain, as listed by the source): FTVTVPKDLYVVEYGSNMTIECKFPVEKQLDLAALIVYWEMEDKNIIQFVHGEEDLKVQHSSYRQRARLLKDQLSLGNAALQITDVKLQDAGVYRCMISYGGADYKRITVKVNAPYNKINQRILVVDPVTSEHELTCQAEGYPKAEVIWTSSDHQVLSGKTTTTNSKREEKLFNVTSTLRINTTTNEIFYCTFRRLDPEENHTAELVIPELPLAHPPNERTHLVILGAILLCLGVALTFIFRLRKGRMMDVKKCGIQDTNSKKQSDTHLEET

Sequence of CTLA4 (human) (chain, as listed by the source): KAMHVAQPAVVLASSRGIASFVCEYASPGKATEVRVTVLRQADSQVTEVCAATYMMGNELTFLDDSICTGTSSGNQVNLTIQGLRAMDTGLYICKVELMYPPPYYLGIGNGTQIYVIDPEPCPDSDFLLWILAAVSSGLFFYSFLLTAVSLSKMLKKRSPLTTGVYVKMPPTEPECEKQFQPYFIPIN

Binder | Fold change to WT CD80 (CTLA4 (human)) [fold] | MFI at 33.3 nM (CTLA4 (human)) [MFI] | Fold change to WT (CD28 (human)) [fold] | MFI at 33.3 nM (CD28 (human)) [MFI] | Fold change to WT (PD-L1 (human)) [fold] | MFI at 33.3 nM (PD-L1 (human)) [MFI]
B1 | 0.01 | 1660 | 0.04 | 284 | 9.14 | 72600
B2 | 0.01 | 1100 | 0.04 | 278 | 4.9 | 38900
B3 | 1.38 | 247000 | 0.04 | 272 | 8.12 | 64500
B4 | 0.04 | 6390 | 0.06 | 433 | 5.66 | 44900
B5 | 0.02 | 2880 | 0.03 | 260 | 15.2 | 121000
B6 | 0.02 | 3640 | 0.04 | 274 | 9.51 | 75500
B7 | 0.42 | 75400 | 0.04 | 268 | 5.97 | 47400
B8 | 1.56 | 278000 | 0.03 | 260 | 8.57 | 68100
B9 | 1.52 | 271000 | 0.04 | 273 | 1.84 | 14600
B10 | 2.09 | 374000 | 0.06 | 434 | 12.3 | 98100
B11 | 0.31 | 56100 | 0.04 | 269 | 1.86 | 14800
B12 | 0.05 | 8510 | 0.03 | 257 | 3.36 | 26700
